Measurements from patent US20060193821, “Aptamers to the human IL-12 cytokine family and their use as autoimmune disease therapeutics” (published 2006).
Residue numbers refer to the chain shown, from its start.

B1: ARC644 (mixed)
RNA: GGGAGAGGAGAGAACGUUCUACUAGUGAGGCGGUAACGGGGGGUGAGGGUGGGGUCGAUCGAUCGAUCAUCGAUG
modifications: deoxy A,G; 2'-OMe C,U
B2: ARC642 (mixed)
RNA: GGGAGAGGAGAGAACGUUCUACAGGCGCAGCCAGCGGGGAGUGAGGGUGGGGGUCGAUCGAUCGAUCAUCGAUG
modifications: deoxy A,G; 2'-OMe C,U
B3: ARC620 (mixed)
RNA: B1 RNA with U23A, A24G, U26A, G27A, G33C, A35U, A36G, U50A
modifications: deoxy A,G; 2'-OMe C,U
B4: ARC645 (mixed)
RNA: GGGAGAGGAGAGAACGUUCUACAGGUAGGCAAGAUAUUGGGGGAAGCGGGUGGGGUCGAUCGAUCGAUCAUCGAUG
modifications: deoxy A,G; 2'-OMe C,U
B5: ARC616 (mixed)
RNA: GGGAGAGGAGAGAACGUUCUACGAUAUAGGCGGUACGGGGGGAGUGGGCUGGGGUCGAUCGAUCGAUCAUCGAUG
modifications: 2'-deoxy A and G, 2'-OMe C and U (dRmY)
B6: ARC612 (mixed)
RNA: GGGAGAGGAGAGAACGUUCUACAGGCAAGUAAUUGGGGAGUGCGGGCGGGGGGGUCGAUCGAUCGAUCAUCGAUG
modifications: 2'-deoxy A and G, 2'-OMe C and U (dRmY)
B7: ARC614 (mixed)
RNA: GGGAGAGGAGAGAACGUUCUACAAGGCGGUACGGGGAGUGUGGGUUGGGGCCGGUCGAUCGAUCGAUCAUCGAUG
modifications: 2'-deoxy A and G, 2'-OMe C and U (dRmY)
B8: ARC627 (mixed)
RNA: GGGAGAGGAGAGAACGUUCUACAGGCAAGUAAUUGGGGAGUGCGGGCGGGGUGUCGAUCGAUCGAUCAUCGAUG
modifications: 2'-deoxy A and G, 2'-OMe C and U (dRmY)
B9: ARC626 (mixed)
RNA: B8 RNA with U52G
modifications: 2'-deoxy A and G, 2'-OMe C and U (dRmY)
B10: ARC611 (mixed)
RNA: GGGAGAGGAGAGAACGUUCUACAGGCAAGGCAAUUGGGGAGUGUGGGUGGGGGGUCGAUCGAUCGAUCAUCGAUG
modifications: 2'-deoxy A and G, 2'-OMe C and U (dRmY)
B11: ARC632 (mixed)
RNA: GGGAGAGGAGAGAACGUUCUACAAUUGCAGGUGGUGCCGGGGGUUGGGGGCGGGUCGAUCGAUCGAUCAUCGAUG
modifications: 2'-deoxy A and G, 2'-OMe C and U (dRmY)
B12: ARC621 (mixed)
RNA: GGGAGAGGAGAGAACGUUCUACAGGCGGUUACGGGGGAUGCGGGUGGGACAGGUCGAUCGAUCGAUCAUCGAUG
modifications: 2'-deoxy A and G, 2'-OMe C and U (dRmY)
B13: ARC893 (mixed)
RNA: GGCAAGGUAAUUGGGGAGUGCGGGCUGGG
modifications: deoxy A,G; 2'-OMe C,U
B14: ARC891 (mixed)
RNA: GGCAAGGUAAUUGGGAAGUGUGGGCGGGG
modifications: deoxy A,G; 2'-OMe C,U
B15: ARC980 (mixed)
RNA: CCAGGCAAGUAAUUGGGGAGUGCGGGCGGGGUGG
modifications: deoxy A,G; 2'-OMe C,U
B16: ARC890 (mixed)
RNA: CCAGGCAAGGUAAUUGGGGAGUGCGGGCGGGGUGG
modifications: deoxy A,G; 2'-OMe C,U
B17: ARC889 (mixed)
RNA: B16 RNA with C1A, G35U
modifications: deoxy A,G; 2'-OMe C,U
B18: ARC892 (mixed)
RNA: GGCAAGGUAAUUGGGUAGUGAGGGCGGGG
modifications: deoxy A,G; 2'-OMe C,U

Each binder was assayed against T1, IL-23 (human, p19/p40 heterodimer) (Homo sapiens, UniProt Q9NPF7;P29460 SEQ:20-189,SEQ:23-328) (assay: filter; PBS, tRNA, ssDNA, BSA). Details: tags: R&D Systems, carrier free.
T1 sequence (Q9NPF7 20-189, chain 1 of 2): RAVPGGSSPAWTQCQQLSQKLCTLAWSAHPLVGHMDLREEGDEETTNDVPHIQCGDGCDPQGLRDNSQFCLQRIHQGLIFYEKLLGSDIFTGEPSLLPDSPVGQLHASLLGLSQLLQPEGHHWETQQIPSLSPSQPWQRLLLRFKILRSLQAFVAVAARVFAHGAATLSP
T1 sequence (P29460 23-328, chain 2 of 2): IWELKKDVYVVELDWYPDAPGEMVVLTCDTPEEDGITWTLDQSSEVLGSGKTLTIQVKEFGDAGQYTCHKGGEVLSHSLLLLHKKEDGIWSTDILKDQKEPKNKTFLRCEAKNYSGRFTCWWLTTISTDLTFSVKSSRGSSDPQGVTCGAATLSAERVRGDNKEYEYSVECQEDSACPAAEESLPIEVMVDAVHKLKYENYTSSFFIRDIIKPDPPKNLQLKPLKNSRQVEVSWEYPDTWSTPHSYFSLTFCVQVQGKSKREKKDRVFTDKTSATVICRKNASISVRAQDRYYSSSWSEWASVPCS
Procedure: (§1) The clones were 5′end labeled with γ-³²P ATP, and were assayed for both IL-23 and IL-12 binding in a 3-point dot blot screen (0 nM, 20 nM, and 100 nM h-IL-23; 0 nM, 20 nM, and 100 nM h-IL-12) (data not shown). […] KD values were determined by fitting an equation describing a 1:1 RNA:protein complex to the resulting data (fraction aptamer bound=amplitude*([IL-23]/(KD+[IL-23]))+background binding) (KaleidaGraph v. 3.51, Synergy Software). Results of protein binding characterization for the higher affinity clones are tabulated in Table 13, and corresponding clone sequences are listed in Table 12.

Binder	Kd [nM]
B1	34.5
B2	37.2
B3	44.8
B4	33.5

Each binder was assayed against T2, IL-12 (human, p35/p40 heterodimer) (Homo sapiens, UniProt P29459;P29460 SEQ:57-253,SEQ:23-328) (assay: filter; PBS, tRNA, ssDNA, BSA). Details: not given.
T2 sequence (P29459 23-219, chain 1 of 2): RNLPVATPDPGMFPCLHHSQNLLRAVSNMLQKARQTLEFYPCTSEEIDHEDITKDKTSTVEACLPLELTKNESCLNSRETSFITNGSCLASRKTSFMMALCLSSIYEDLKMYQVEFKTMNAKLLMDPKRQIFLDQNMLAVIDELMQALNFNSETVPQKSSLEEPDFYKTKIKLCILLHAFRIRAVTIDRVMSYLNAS
T2 sequence (P29460 23-328, chain 2 of 2): as the sequence (P29460 23-328, chain 2 of 2) above
Procedure: as §1

Binder	Kd [nM]
B1	193
B2	188
B3	179
B4	137

What follows are binders tested against T1, IL-23 (human, p19/p40 heterodimer) (assay: filter; 1X PBS, tRNA, ssDNA, BSA, 30 min RT). Details: tags: R&D Systems, carrier free; label: 5'-32P; G4 (predicted).
Procedure: as §1

Binder	Kd [nM]
B5	13.1
B6	5.8
B7	3.1
B8	7
B9	10.1
B10	21.3
B11	19.1
B12	28.8

The binders below were run against T2, IL-12 (human, p35/p40 heterodimer) (assay: filter; 1X PBS, tRNA, ssDNA, BSA, 30 min RT). Details: label: 5'-32P; G4 (predicted).
Procedure: as §1

Binder	Kd [nM]
B5	52.1
B6	41.7
B7	54.4
B8	79.5
B9	69.8
B10	123
B11	63.9
B12	112

These binders were tested against T1, IL-23 (human, p19/p40 heterodimer) (assay: filter; +tRNA). Details: tags: R&D Systems, carrier free.

Binder	Kd [nM]
B13	2860
B14	177
B15	139
B16	114
B17	115
B18	255
